In US20260242419A1, “A CYCLIC PEPTIDE FOR TRAPPING INTERLEUKIN-1 BETA” (Merck Sharp & Dohme LLC, priority 2023, published 2026):
Starred links: 1 amine or outer side, 2 acyl side, 3 side chain; linkers in the order of their positions; H or OH if unused. Non-standard residues stand in square brackets, D forms with d. Primed or numbered codes have the meaning given here. AEFBz4Piperaz = (S)-2-amino-3-(4-(2-(4-(piperazin-1-yl)benzamido)ethoxy)phenyl)propanoic acid, O=C(NCCOc1ccc(C[C@H](N[*:1])C(=O)[*:2])cc1)c1ccc(N2CCN([*:3])CC2)cc1; AEF4AcPip4c = (S)-3-(4-(2-(1-acetylpiperidine-4-carboxamido)ethoxy)phenyl)-2-aminopropanoic acid, CC(=O)N1CCC(C(=O)NCCOc2ccc(C[C@H](N[*:1])C(=O)[*:2])cc2)CC1; AEF2PyrimCO = (S)-2-amino-3-(4-(2-(pyrimidine-2-carboxamido)ethoxy)phenyl)propanoic acid, O=C(NCCOc1ccc(C[C@H](N[*:1])C(=O)[*:2])cc1)c1ncccn1; AEF4PyrimCO = (S)-2-amino-3-(4-(2-(pyrimidine-4-carboxamido)ethoxy)phenyl)propanoic acid, O=C(NCCOc1ccc(C[C@H](N[*:1])C(=O)[*:2])cc1)c1ccncn1; AEFPyrzCO = (S)-2-amino-3-(4-(2-(pyrazine-2-carboxamido)ethoxy)phenyl)propanoic acid, O=C(NCCOc1ccc(C[C@H](N[*:1])C(=O)[*:2])cc1)c1cnccn1; AEFcHex = (S)-2-amino-3-(4-(2-(cyclohexanecarboxamido)ethoxy)phenyl)propanoic acid, O=C(NCCOc1ccc(C[C@H](N[*:1])C(=O)[*:2])cc1)C1CCCCC1; AEF4PyrCO = (S)-2-amino-3-(4-(2-(isonicotinamido)ethoxy)phenyl)propanoic acid, O=C(NCCOc1ccc(C[C@H](N[*:1])C(=O)[*:2])cc1)c1ccncc1; AEFPiv = (S)-2-amino-3-(4-(2-pivalamidoethoxy)phenyl)propanoic acid, CC(C)(C)C(=O)NCCOc1ccc(C[C@H](N[*:1])C(=O)[*:2])cc1; AEFBz = (S)-2-amino-3-(4-(2-benzamidoethoxy)phenyl)propanoic acid, O=C(NCCOc1ccc(C[C@H](N[*:1])C(=O)[*:2])cc1)c1ccccc1; Bip4CONMe2″ = 4'-(dimethylcarbamoyl)biphenylalanine, CN(C)C(=O)c1ccc(-c2ccc(C[C@H](N[*:1])C(=O)[*:2])cc2)cc1; OrnMe3 = ornithine with side-chain trimethylammonium, C[N+](C)(C)CCC[C@H](N[*:1])C(=O)[*:2]; Trp(4-Cl)(βS-Me) = C[C@@H](c1c[nH]c2cccc(Cl)c12)[C@H](N)C(=O)O; dPro(4R-(4-pyridylmethyl)) = O=C(O)[C@H]1C[C@@H](Cc2ccncc2)CN1; Trp(βS-Me,4-F) = C[C@@H](c1c[nH]c2cccc(F)c12)[C@H](N)C(=O)O; Bip(4'-CONH2) = NC(=O)c1ccc(-c2ccc(C[C@H](N)C(=O)O)cc2)cc1; Bip(4'-COOH) = N[C@@H](Cc1ccc(-c2ccc(C(=O)O)cc2)cc1)C(=O)O; dPro(4R-Bzl(4-F)) = O=C(O)[C@H]1C[C@@H](Cc2ccc(F)cc2)CN1; dPro(3S-(4-F-Bn)) = O=C(O)[C@@H]1NCC[C@@H]1Cc1ccc(F)cc1; 1Nal(3S-Me) = C[C@@H](c1cccc2ccccc12)[C@H](N)C(=O)O; Ala(pyrimidin-5-yl) = N[C@@H](Cc1cncnc1)C(=O)O; Phe(4-COOH) = N[C@@H](Cc1ccc(C(=O)O)cc1)C(=O)O; Bip = N[C@@H](Cc1ccc(-c2ccccc2)cc1)C(=O)O; Lys(Me3) = C[N+](C)(C)CCCC[C@H](N)C(=O)O; Phe(4-Br) = N[C@@H](Cc1ccc(Br)cc1)C(=O)O; Pro(cis-4-F) = O=C(O)[C@@H]1C[C@H](F)CN1; Ala(4-THP) = N[C@@H](CC1CCOCC1)C(=O)O; d(αMeD) = C[C@@](N)(CC(=O)O)C(=O)O; 4Pal = N[C@@H](Cc1ccncc1)C(=O)O; aThr = C[C@H](O)[C@H](N)C(=O)O; Dab = NCC[C@H](N)C(=O)O; Aib = CC(C)(N)C(=O)O

B1: SEQ ID NO 306 (peptide)
peptide: cyclo([AEFBz4Piperaz][4Pal][Phe(4-COOH)]G[Pro(cis-4-F)][Trp(βS-Me,4-F)][Aib]SW[Aib][Ala(pyrimidin-5-yl)]Q[Dab]G[dPro(4R-(4-pyridylmethyl))])
modifications: ring closure inferred; not fully specified (N-terminus); printed as cyclic, AEFBz4Piperaz-4Pal-Phe4COOH-G-Proc4F-SbMeW4F-Aib-S-W-Aib-PyrimAla-Q-Dab-G-dProc4CH24Pal
B2: SEQ ID NO 298 (peptide)
peptide: cyclo([Bip(4'-COOH)][4Pal][Phe(4-COOH)]G[Pro(cis-4-F)][Trp(βS-Me,4-F)][Aib]SW[Aib][Lys(Me3)]Q[Dab]G[dPro(4R-Bzl(4-F))])
modifications: ring closure inferred; not fully specified (N-terminus); printed as cyclic, Bip4CO2H-4Pal-Phe4COOH-G-Proc4F-sbMeW4F-Aib-S-W-Aib-LysMe3-Q-Dab-G-dProc4Bn4F
B3: SEQ ID NO 295 (peptide)
peptide: cyclo([Bip4CONMe2″][4Pal][Phe(4-COOH)]G[Pro(cis-4-F)][Trp(βS-Me,4-F)][Aib]SW[d(αMeD)][Ala(4-THP)]Q[Dab]G[dPro(4R-(4-pyridylmethyl))])
modifications: ring closure inferred; not fully specified (N-terminus); printed as cyclic, Bip4CONMe2-4Pal-Phe4COOH-G-Proc4F-SbMeW4F-Aib-S-W-daMeD-AlaTHP4-Q-Dab-G-dProc4CH24Pal
B4: SEQ ID NO 289 (peptide)
peptide: cyclo([Bip][4Pal][Phe(4-COOH)]G[Pro(cis-4-F)][Trp(4-Cl)(βS-Me)][Aib]SW[d(αMeD)][aThr]Q[Dab]G[dPro(4R-(4-pyridylmethyl))])
modifications: ring closure inferred
B5: SEQ ID NO 308 (peptide)
peptide: cyclo([AEFBz][4Pal][Phe(4-COOH)]G[Pro(cis-4-F)][Trp(βS-Me,4-F)][Aib]SW[Aib][Ala(pyrimidin-5-yl)]Q[Dab]G[dPro(4R-(4-pyridylmethyl))])
modifications: ring closure inferred; not fully specified (N-terminus); printed as cyclic, AEFBz-4Pal-Phe4COOH-G-Proc4F-SbMeW4F-Aib-S-W-Aib-PyrimAla-Q-Dab-G-dProc4CH24Pal
B6: SEQ ID NO 291 (peptide)
peptide: cyclo([Bip][4Pal][Phe(4-COOH)]G[Pro(cis-4-F)][1Nal(3S-Me)][Aib]SW[d(αMeD)][Ala(pyrimidin-5-yl)]Q[Dab]G[dPro(4R-(4-pyridylmethyl))])
modifications: ring closure inferred
B7: SEQ ID NO 305 (peptide)
peptide: cyclo([AEF4PyrimCO][4Pal][Phe(4-COOH)]G[Pro(cis-4-F)][Trp(βS-Me,4-F)][Aib]SW[Aib][Ala(pyrimidin-5-yl)]Q[Dab]G[dPro(4R-(4-pyridylmethyl))])
modifications: ring closure inferred; not fully specified (N-terminus); printed as cyclic, AEF4PyrimCO-4Pal-Phe4COOH-G-Proc4F-SbMeW4F-Aib-S-W-Aib-PyrimAla-Q-Dab-G-dProc4CH24Pal
B8: SEQ ID NO 293 (peptide)
peptide: cyclo([Bip][4Pal][Phe(4-COOH)]G[Pro(cis-4-F)][Trp(βS-Me,4-F)][Aib]SW[d(αMeD)][aThr]Q[Dab]G[dPro(4R-(4-pyridylmethyl))])
modifications: ring closure inferred; not fully specified (N-terminus); printed as cyclic, Bip-4Pal-Phe4COOH-G-Proc4F-SbMeW4F-Aib-S-W-daMeD-alT-Q-Dab-G-dProc4CH24Pal
B9: SEQ ID NO 290 (peptide)
peptide: cyclo([Bip][4Pal][Phe(4-COOH)]G[Pro(cis-4-F)][1Nal(3S-Me)][Aib]SW[d(αMeD)][Ala(4-THP)]Q[Dab]G[dPro(4R-(4-pyridylmethyl))])
modifications: ring closure inferred
B10: SEQ ID NO 299 (peptide)
peptide: cyclo([Phe(4-Br)][4Pal][Phe(4-COOH)]G[Pro(cis-4-F)][Trp(βS-Me,4-F)][Aib]SW[d(αMeD)][Ala(pyrimidin-5-yl)]Q[Dab]G[dPro(3S-(4-F-Bn))])
modifications: ring closure inferred; not fully specified (N-terminus); printed as cyclic, Phe4Br-4Pal-Phe4COOH-G-Proc4F-SbMeW4F-Aib-S-W-daMeD-PyrimAla-Q-Dab-G-dProc3Bn4F
B11: SEQ ID NO 294 (peptide)
peptide: cyclo([Bip][4Pal][Phe(4-COOH)]G[Pro(cis-4-F)][Trp(βS-Me,4-F)][Aib]SW[d(αMeD)][Ala(4-THP)]Q[Dab]G[dPro(4R-(4-pyridylmethyl))])
modifications: ring closure inferred; not fully specified (N-terminus); printed as cyclic, Bip-4Pal-Phe4COOH-G-Proc4F-SbMeW4F-Aib-S-W-daMeD-AlaTHP4-Q-Dab-G-dProc4CH24Pal
B12: SEQ ID NO 292 (peptide)
peptide: cyclo([Bip][4Pal][Phe(4-COOH)]G[Pro(cis-4-F)][Trp(4-Cl)(βS-Me)][Aib]SW[d(αMeD)][Ala(pyrimidin-5-yl)]Q[Dab]G[dPro(4R-(4-pyridylmethyl))])
modifications: ring closure inferred; not fully specified (N-terminus); printed as cyclic, Bip-4Pal-Phe4COOH-G-Proc4F-SbMeW4Cl-Aib-S-W-daMeD-PyrimAla-Q-Dab-G-dProc4CH24Pal
B13: SEQ ID NO 300 (peptide)
peptide: cyclo([AEFPiv][4Pal][Phe(4-COOH)]G[Pro(cis-4-F)][Trp(βS-Me,4-F)][Aib]SW[Aib][Ala(pyrimidin-5-yl)]Q[Dab]G[dPro(4R-(4-pyridylmethyl))])
modifications: ring closure inferred; not fully specified (N-terminus)
B14: SEQ ID NO 307 (peptide)
peptide: cyclo([AEF4PyrCO][4Pal][Phe(4-COOH)]G[Pro(cis-4-F)][Trp(βS-Me,4-F)][Aib]SW[Aib][Ala(pyrimidin-5-yl)]Q[Dab]G[dPro(4R-(4-pyridylmethyl))])
modifications: ring closure inferred; not fully specified (N-terminus); printed as cyclic, AEF4PyrCO-4Pal-Phe4COOH-G-Proc4F-SbMeW4F-Aib-S-W-Aib-PyrimAla-Q-Dab-G-dProc4CH24Pal
B15: SEQ ID NO 304 (peptide)
peptide: cyclo([AEF2PyrimCO][4Pal][Phe(4-COOH)]G[Pro(cis-4-F)][Trp(βS-Me,4-F)][Aib]SW[Aib][Ala(pyrimidin-5-yl)]Q[Dab]G[dPro(4R-(4-pyridylmethyl))])
modifications: ring closure inferred; not fully specified (N-terminus); printed as cyclic, AEF2PyrimCO-4Pal-Phe4COOH-G-Proc4F-SbMeW4F-Aib-S-W-Aib-PyrimAla-Q-Dab-G-dProc4CH24Pal
B16: SEQ ID NO 303 (peptide)
peptide: cyclo([AEFPyrzCO][4Pal][Phe(4-COOH)]G[Pro(cis-4-F)][Trp(βS-Me,4-F)][Aib]SW[Aib][Ala(pyrimidin-5-yl)]Q[Dab]G[dPro(4R-(4-pyridylmethyl))])
modifications: ring closure inferred; not fully specified (N-terminus); printed as cyclic, AEFPyrzCO-4Pal-Phe4COOH-G-Proc4F-SbMeW4F-Aib-S-W-Aib-PyrimAla-Q-Dab-G-dProc4CH24Pal
B17: SEQ ID NO 301 (peptide)
peptide: cyclo([AEFcHex][4Pal][Phe(4-COOH)]G[Pro(cis-4-F)][Trp(βS-Me,4-F)][Aib]SW[Aib][Ala(pyrimidin-5-yl)]Q[Dab]G[dPro(4R-(4-pyridylmethyl))])
modifications: ring closure inferred; not fully specified (N-terminus)
B18: SEQ ID NO 302 (peptide)
peptide: cyclo([AEF4AcPip4c][4Pal][Phe(4-COOH)]G[Pro(cis-4-F)][Trp(βS-Me,4-F)][Aib]SW[Aib][Ala(pyrimidin-5-yl)]Q[Dab]G[dPro(4R-(4-pyridylmethyl))])
modifications: ring closure inferred; not fully specified (N-terminus); printed as cyclic, AEF4AcPip4c-4Pal-Phe4COOH-G-Proc4F-SbMeW4F-Aib-S-W-Aib-PyrimAla-Q-Dab-G-dProc4CH24Pal
B19: SEQ ID NO 296 (peptide)
peptide: cyclo([Bip(4'-CONH2)][4Pal][Phe(4-COOH)]G[Pro(cis-4-F)][Trp(βS-Me,4-F)][Aib]SW[d(αMeD)][Ala(4-THP)]Q[Dab]G[dPro(4R-(4-pyridylmethyl))])
modifications: ring closure inferred; not fully specified (N-terminus); printed as cyclic, Bip4CONH2-4Pal-Phe4COOH-G-Proc4F-SbMeW4F-Aib-S-W-daMeD-AlaTHP4-Q-Dab-G-dProc4CH24Pal
B20: SEQ ID NO 297 (peptide)
peptide: cyclo([Bip(4'-COOH)][4Pal][Phe(4-COOH)]G[Pro(cis-4-F)][Trp(βS-Me,4-F)][Aib]SW[Aib][OrnMe3]Q[Dab]G[dPro(4R-Bzl(4-F))])
modifications: ring closure inferred; not fully specified (N-terminus); printed as cyclic, Bip4CO2H-4Pal-Phe4COOH-G-Proc4F-sbMeW4F-Aib-S-W-Aib-OrnMe3-Q-Dab-G-dProc4Bn4F

Target: Recombinant human IL-1β (BioLegend 579404) (human, UniProt P01584 117-269)
Assay: cell-based or functional assay

Row | MRC5 IC50 [nM] | Binder
1 | 0.02 | B1
2 | 0.015 | B2
3 | 0.012 | B3
4 | 0.015 | B4
5 | 0.013 | B5
6 | 0.018 | B6
7 | 0.016 | B7
8 | 0.01 | B8
9 | 0.018 | B9
10 | 0.012 | B10
11 | 0.014 | B11
12 | 0.015 | B12
13 | 0.013 | B13
14 | 0.018 | B14
15 | 0.014 | B15
16 | 0.016 | B16
17 | 0.017 | B17
18 | 0.017 | B18
19 | 0.013 | B19
20 | 0.022 | B20
